This is an account of results in patent publication US20230331820A1 (GlaxoSmithKline, published 2023).

Like-named read-outs stand apart in the source and are kept apart here.

Assay [1] concerns the target T1, gEgI WT: HSV2 gEgI heterodimer comprising gE and gI wildtype ectodomains (HSV2, UniProt P89475 21-416; P06764 21-256). As to the kind of experiment: SPR binning; gEgI captured by mAb 39.
The target of assay [2] is T1, gEgI WT: HSV2 gEgI heterodimer …. As to the kind of experiment: Biacore SPR, gEgI CHO BMP1181 at 10 µg/ml for 180 s over the mAb. (In general: Surface plasmon resonance follows binding to a sensor surface in real time, without labels.)
Assay [3] has the same target. As to the kind of experiment: SPR binning; gEgI captured by mAb 42.
Assay [4] shares this target. As to the kind of experiment: Biacore SPR, gEgI HEK BMP1063 at 10 µg/ml for 180 s over the mAb.
Assay [5] has the same target. As to the kind of experiment: SPR binning; gEgI captured by mAb 24.
Assay [6] has the same target. As to the kind of experiment: SPR binning; gEgI captured by mAb 17.
For assay [7] the target is unchanged. As to the kind of experiment: SPR binning; gEgI captured by mAb 40.
Assay [8] shares this target. As to the kind of experiment: SPR binning; gEgI captured by mAb 34.
Assay [9] shares this target. As to the kind of experiment: SPR binning; gEgI captured by mAb 10.
Assay [10] has the same target. As to the kind of experiment: SPR binning; gEgI captured by mAb 5.
For assay [11] the target is unchanged. As to the kind of experiment: SPR binning; gEgI captured by mAb 19.
Assay [12] has the same target. As to the kind of experiment: SPR binning; gEgI captured by mAb 15.
The target is the same in assay [13]. As to the kind of experiment: SPR binning; gEgI captured by mAb 20.
Assay [14] concerns the target gEgI mutant (338): HSV2 gEgI mutant heterodimer comprising gE and gI ectodomains with insertion of a (HSV2, UniProt P89475 21-416; P06764 21-256). As to the kind of experiment: ELISA, supernatant. (In an ELISA, binding on a coated surface is turned into a signal by an enzyme label.)
Assay [15] addresses gE WT: HSV2 gE wildtype ectodomain (HSV2, UniProt P89475 21-416). As to the kind of experiment: ELISA, supernatant.
The target in assay [16] is T2, gI WT: HSV2 gI wildtype ectodomain (HSV2, UniProt P06764 21-256). As to the kind of experiment: ELISA, supernatant.
Assay [17] addresses T1, gEgI WT: HSV2 gEgI heterodimer …. As to the kind of experiment: SPR binning; gEgI captured by mAb 45.
For assay [18] the target is unchanged. As to the kind of experiment: SPR binning; gEgI captured by mAb 9.
For assay [19], the target named is gEgI mutant (P317R): HSV2 gEgI mutant heterodimer comprising gE and gI ectodomains with mutation P317R in gE (HSV2, UniProt P89475 21-416; P06764 21-256). As to the kind of experiment: ELISA, supernatant.
Assay [20] deals with T1, gEgI WT: HSV2 gEgI heterodimer …. As to the kind of experiment: ELISA, supernatant.
The target of assay [21] is gEgI mutant (R320D): HSV2 gEgI mutant heterodimer comprising gE and gI ectodomains with mutation R320D in gE (HSV2, UniProt P89475 21-416; P06764 21-256). As to the kind of experiment: ELISA, supernatant.
For assay [22], the target named is gEgI mutant (P319D): HSV2 gEgI mutant heterodimer comprising gE and gI ectodomains with mutation P319D in gE (HSV2, UniProt P89475 21-416; P06764 21-256). As to the kind of experiment: ELISA, supernatant.
Assay [23] deals with T2, gI WT: HSV2 gI wildtype ectodomain. As to the kind of experiment: ELISA, supernatant. The source holds these as a separate data set.

B1: mAb clone 19 (antibody, V domains shown)
VH: QVQLQQSGAELVRPGVSVKISCKGSGYTFTDYAMHWVKQSHAKSLEWIGVISTYYGDARYNQKFKGKATMTVDKSSSTAYMELARLTSEDSAIYYCARRGITVVADYAMDYWGQGTSVTVSS
VL: QIVLTQSPAIMSASPGEKVTMSCSASSSVTYMHWYQQKSGTSPKRWIYDTSKLASGVPARFSGSGSGTSYSLTISSMEAEDAATYYCQQWSSNPPTFGGGTKLEIK
On to B1, for which the RU in assay [1] came to 16.2 RU; in assay [3] it was 16.3 RU; in assay [5], 3.2 RU; in assay [6] it was 18.1 RU; in assay [7], 13.9 RU; in [8], 9.3 RU. Besides, the RU was 24.4 RU in assay [9]; 17.2 RU in assay [10]; -3.4 RU in assay [11]; 23 RU in assay [12]; 9 RU in assay [13]; 9.2 RU in assay [17]. The molecule also showed an RU in [18] of 6.4 RU. Moreover, the “RU Ag/250 RU mAbs” value in assay [2] stood at 6.49 RU Ag/250 RU mAbs; in assay [4], 7.88 RU Ag/250 RU mAbs. In addition, the binding result in assay [14] was “binds”; in [15], “no binding”; in assay [16], “no binding”.

B2: mAb clone 44 (antibody, V domains shown)
VH: EVQLQQSGPELEKPGASVKISCKASGYSFTGYNMNWVKQSNGKSLEWIGNIDPYYGGIRYNQKFKGKATLTVDKSSSTAYMQLKSLTSEDSAVYYCAREDRYLVHYYAMDYWGQGTSVTVSS
VL: QIVLTQSPAIMSASPGEKVTMTCSASSSISYMHWYQQKPGTSPKRWIYDTSKLASGVPARFSGSGSGTSYSLTISSMEAEDAATYYCHQRSSYPYTFGGGTKLEIK
As for B2, the binding result in assay [19], in assay [14], in assay [15], in assay [20], in assay [21] and in assay [16] was “binds” in each case. In addition, in assay [22], the binding result is “binds”.

B3: mAb clone 35, 36 (antibody, V domains shown)
VH: QVQLKESGPGLVAPSQSLSITCTVSGFSLTSYGVHWVRQPPGKGLEWLGVIWAGGSTNYNSALMSRLSISKDNSKSQVFLKMNSLQTDDTAMYYCATDGYKFFYYAMDYWGQGTSVTVSS
VL: DIVMTQAAPSVPVTPGESVSISCRSSKSLLHSNGNTYLYWFLQRPGQSPQLLIYRMSNLASGVPDRFSGSGSGTAFTLRISRVEAEDVGVYYCMQHLEYPFTFGSGTKLEIK
B3: the binding result in assay [19], in assay [14], in [15], in [20], in assay [21] and in assay [16] was “binds” in each case. In [22], the binding result is given as “binds”.

B4: mAb clone 15 (antibody, V domains shown)
VH: QVQLKESGPGLVAPSQSLSITCTVSGFSLTSYGVSWVRQPPGKGLEWLGVIWGDGSTNYHSALISRLSISKDNSKSQVFLKLNSLQTDDTATYYCAKPDLYYDSPYAMDYWGQGTSVTVSS
VL: DIQMTQSPASLSASVGETVTITCRASGNIHNYLAWYQQKQGKSPQLLVYNAKTLADGVPSRFSGSGSGTQYSLKINSLQPEDFGSYYCQHFWSTPWTFGGGTKLEIK
B4: the RU in assay [1] came out at 11.7 RU; in assay [3] it was 9.8 RU; in [5] it was 9.9 RU; in assay [6] it was 3.4 RU; in [7], 6.9 RU; in [8], 5.9 RU. For the same molecule, the RU is 13.4 RU in [9]; 13.5 RU in assay [10]; 7.6 RU in assay [11]; -4.9 RU in assay [12]; 13 RU in assay [13]; 8.7 RU in assay [17]. This molecule also showed an RU in assay [18] of 12.7 RU. Further, the “RU Ag/250 RU mAbs” value came out at 30.4 RU Ag/250 RU mAbs in [2] and 31.5 RU Ag/250 RU mAbs in [4]. For the same molecule, the binding result was “binds” in [14], “no binding” in assay [15] and “no binding” in [16].

B5: mAb clone 14 (antibody, V domains shown)
VH: QVQLQQSGAELMKPGASVKISCKATGYTFSSYWIEWVKQRPGHGLEWIGEILPGSGSTNYNEKFKGKATFTADTSSNTAYMQLSSLTSEDSAVYYCASGSAGNYYGSSYEAMDYWGQGTSVTVSS
VL: DIVLTQSPASLAVSLGQRATISCRASKSVSTSGYSYMHWYQQKPGQPPKLLIYLASNLESGVPARFSGSGSGTDFTLNIHPVEEEDAATYYCQHSRELPLTFGAGTKLELK
notes: also called GEGI/14IIa
In the case of B5, the binding result in [23] is on record as “no binding”; in [19] it was “binds”; in assay [14] it was “binds”; in assay [15] it was “binds”; in assay [20] it was “binds”; in assay [21] it was “binds”. Also, the binding result in assay [22] was “binds”.

B6: mAb clone 34 (antibody, V domains shown)
VH: EVKLVESGGGLVQPGGSLKLSCATSGFTFSDYYMYWVRQTPEKRLEWVAYISNGGDSTYYPDTVKGRFTISRDNAKNTLYLQMSRLKSEDTAMYYCARSYYGNPFPYWGQGTLVTVSA
VL: ENVLTQSPAIMSASPGEKVTMTCRASSSVSSSYLHWYQQKSGASPKLWIYSTSNLASGVPARFSGSGSGTSYSLTISSVEAEDAATYYCQQYSGYPLTFGAGTKLELK
In the case of B6, the RU in assay [1] was -1.5 RU; in assay [3] it was -2.4 RU; in [5], -3.6 RU; in assay [6] it was -3.3 RU; in [7], -4.1 RU; in assay [8], -11.1 RU. Further, the RU was 1.3 RU in assay [9]; -2.1 RU in assay [10]; -8.4 RU in [11]; -2.7 RU in assay [12]; 0.4 RU in [13]; -6.3 RU in assay [17]. Further, the RU in [18] was -3.9 RU. The “RU Ag/250 RU mAbs” value in assay [2] came out at 12.8 RU Ag/250 RU mAbs; in [4] it was 14.4 RU Ag/250 RU mAbs. The values for the binding result in assay [23], in [14] and in assay [15] were “no binding”, “binds” and “no binding”, respectively.
